# Results as given in patent US20150284465A1 (Chugai, published 2015).
# Like-named read-outs stand apart in the source and are kept apart here.
# T1: SR344 (N-terminal 1st to 344th amino acids of soluble human IL-6R) (human, UniProt P08887 20-344, limits assumed)
# T1 construct: also called recombinant soluble IL-6 receptor; soluble human IL-6 receptor
# T1 sequence (looked up): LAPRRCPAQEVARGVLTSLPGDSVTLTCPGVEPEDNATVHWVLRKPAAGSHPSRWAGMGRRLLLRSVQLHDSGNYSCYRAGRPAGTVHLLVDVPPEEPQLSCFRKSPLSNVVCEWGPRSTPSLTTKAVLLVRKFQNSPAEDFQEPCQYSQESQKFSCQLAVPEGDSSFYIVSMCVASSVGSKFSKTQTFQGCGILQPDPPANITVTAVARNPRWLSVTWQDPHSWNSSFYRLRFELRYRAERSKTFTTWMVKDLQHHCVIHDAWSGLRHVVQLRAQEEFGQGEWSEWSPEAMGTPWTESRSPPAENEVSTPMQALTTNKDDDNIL
# T2: human-derived Fcγ receptor IIb (Recombinant Human FcRIIB/C, R&D systems) (human, UniProt P31994 46-217, limits assumed)
# T2 construct: Bought recombinant protein, construct not described; also called FcγRIIb
# T2 sequence (looked up): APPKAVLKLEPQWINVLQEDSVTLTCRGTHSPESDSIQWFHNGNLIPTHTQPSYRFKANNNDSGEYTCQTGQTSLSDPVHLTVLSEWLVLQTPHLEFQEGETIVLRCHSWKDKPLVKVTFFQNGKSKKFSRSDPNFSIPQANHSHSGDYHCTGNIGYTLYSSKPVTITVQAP
# Columns and labels:
# [1] = molecular target: T3, soluble GPC3 core polypeptide (human, UniProt P51654 25-563); assay: competitive ELISA on plate-immobilized soluble GPC3 core polypeptide; competitor: biotinylated GPC3-H2L2 antibody at 0.3 µg/mL
# T3 construct: also called soluble GPC3 core protein; soluble glypican-3 core
# Description: The binding activities of prepared antibodies were determined by competitive ELISA. […] The plates were incubated at 4° C. for 30 minutes or more for blocking. […] The plates were incubated at room temperature for one hour, and then washed five times with washing buffer using SkanWasher 400 (Molecular Devices). 100 μl of goat anti streptavidin alkaline phosphatase (Zymed) 20,000-times diluted with substrate buffer was added to each well. The plates were incubated at room temperature for one hour, and then washed five times with washing buffer using SkanWasher 400. Phosphatase Substrate (Sigma) was prepared at 1 mg/ml using substrate buffer, and added to each well (100 μl). The plates were incubated for one hour.
# [2] = molecular target: T4, soluble human FcRn (complex of FcRn and β2-microglobulin) (human, UniProt P55899 24-290; P16213 21-119); assay: SPR (Biacore 3000), antibody captured on Protein L or anti-human kappa chain antibody, human FcRn as analyte, pH 6.0, steady state affinity
# T4 construct: also called hFcRn; copies: 1 + 1
# Description: (§1) The binding to human FcRn was assessed using Biacore 3000. An antibody was bound to Protein L or rabbit anti-human IgG Kappa chain antibody immobilized onto a sensor chip, human FcRn was added as an analyte for interaction with the antibody, and the affinity (KD) was calculated from the amount of bound human FcRn. Specifically, Protein L or rabbit anti-human IgG Kappa chain antibody was immobilized onto sensor chip CM5 (Biacore) by the amine coupling method using 50 mM Na-phosphate buffer (pH 6.0) containing 150 mM NaCl as the running buffer. Then, an antibody was diluted with a running buffer containing 0.02% Tween20, and injected to be bound to the chip. Human FcRn was then injected and the binding activity of the human FcRn to antibody was assessed.
# (§2) The affinity was computed using BlAevaluation Software. The obtained sensorgram was used to calculate the amount of hFcRn bound to the antibody immediately before the end of human FcRn injection. The affinity of the antibody for human FcRn was calculated by fitting with the steady state affinity method.
# [3] = molecular target: T1, SR344 (N-terminal 1st to 344th amino …); assay: SPR (Biacore T100), antibody captured on Protein A, soluble human IL-6 receptor as analyte
# Description: The antigen-antibody reaction kinetics between anti-human IL-6 receptor antibody and soluble human IL-6 receptor was analyzed using Biacore T100 (GE Healthcare Biosciences). The antigen-antibody interaction was measured by immobilizing rec-Protein A (Zymed) (hereinafter “Protein A”) onto a sensor chip, capturing an antibody with the immobilized Protein A, and then reacting the antibody with the antigen as an analyte using a method known to those skilled in the art. The running buffer used was HBS-EP+, and the flow rate was 20 μl/min. Each antibody was prepared so that about 100 RU of the antibody was bound to Protein A/G. Soluble human IL-6 receptor was prepared at 0, 0.065, 0.131, and 0.261 μg/ml using HBS-EP+ and used as an analyte. In the first step of the measurement, the antibody in solution was bound to Protein A/G, and the analyte solution was allowed to interact with the antibody. After three minutes of interaction, the solution was switched to HBS-EP+, and the dissociation phase was monitored for 10 or 15 minutes. After measurement of the dissociation phase, the sensor chip was regenerated by washing with 10 μl of 10 mM glycine-HCl (pH 1.5). The association, dissociation, and regeneration constitute one analysis cycle. Each antibody was measured according to this cycle. The obtained sensorgrams were kinetically analyzed using the Biacore-specific data analysis software, Biacore T100 Evaluation Software (GE Healthcare Biosciences).
# [4] = molecular target: T4, soluble human FcRn (complex of FcRn and …); assay: SPR (Biacore 3000), antibody captured on Protein L or anti-human kappa chain antibody, human FcRn as analyte, pH 6.0, steady state affinity; remark: listed apart in the source
# Description: as §1, §2
# [5] = molecular target: T5, hFcγRIIIaV-His6 (human-derived Fcγ receptor IIIa, Val) (human, UniProt P08637 17-208, limits assumed); assay: SPR (Biacore T100), hFcγRIIIaV-His6 immobilized on CM5, antibody as analyte at 250 µg/ml
# T5 construct: also called FcγRIIIa (Val); not shown: His6 tag
# Description: The FcγRIIIa binding was assessed by the procedure described below. […] The amounts of bound antibody were compared. […] FcγRIIIa was immobilized onto the sensor chip CM5 (Biacore) by the amine coupling method. […] The running buffer used was HBS-EP+, and the flow rate was 5 μl/min. The sample concentration was adjusted to 250 μg/ml using HBS-EP+. The analysis included two steps: two minutes of association phase where 10 μl of an antibody solution was injected and the subsequent four minutes of dissociation phase where the injection was switched with HBS-EP+. After the dissociation phase, the sensor chip was regenerated by injecting 20 μl of 5 mM hydrochloric acid. The association, dissociation, and regeneration constitute one analysis cycle. Various antibody solutions were injected to obtain sensorgrams. […] 1999 August; 29(8):2613-24.
# [6] = molecular target: T2, human-derived Fcγ receptor IIb …; assay: SPR (Biacore T100), FcγRIIb immobilized on CM5, antibody as analyte at 200 µg/ml, 25 C
# Description: The FcγRIIb binding was assessed by the procedure described below. […] The amounts of bound antibody were compared. […] FcγRIIb was immobilized onto the sensor chip CM5 (Biacore) by the amine coupling method. The final amount of immobilized FcγRIIb was about 4,300 RU. Then, the running buffer was injected until the baseline was stabilized. The measurement was carried out after the baseline was stabilized. […] The running buffer used was HBS-EP+ (10 mM HEPES, 0.15M NaCl, 3 mM EDTA, 0.05% v/v Surfactant P20), and the flow rate was 20 μl/min. The measurement temperature was 25° C. The concentration of each IgG or modified form thereof was adjusted to 200 μg/ml. 20 μl of an analyte was injected and allowed to interact with the immobilized FcγRIIb. After interaction, the analyte was dissociated from FcγRIIb and the sensor chip was regenerated by injecting 200 μl of the running buffer. […] This series of injection was repeated twice.
# T4 sequence (P55899 24-290 limits assumed, chain 1 of 2): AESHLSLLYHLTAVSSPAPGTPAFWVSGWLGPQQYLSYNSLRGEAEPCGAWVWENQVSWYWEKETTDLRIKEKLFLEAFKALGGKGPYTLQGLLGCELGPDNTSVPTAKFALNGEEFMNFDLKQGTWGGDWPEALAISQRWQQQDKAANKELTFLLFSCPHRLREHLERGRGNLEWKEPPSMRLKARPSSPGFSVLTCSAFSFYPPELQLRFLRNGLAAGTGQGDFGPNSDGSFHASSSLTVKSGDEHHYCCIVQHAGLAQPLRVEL
# T4 sequence (P16213 21-119 limits assumed, chain 2 of 2): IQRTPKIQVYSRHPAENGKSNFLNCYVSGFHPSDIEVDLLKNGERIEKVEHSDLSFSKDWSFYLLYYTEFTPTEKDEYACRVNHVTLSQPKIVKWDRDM
# T3 sequence (P51654 other isoform, or with tags, fused parts or gaps limits assumed): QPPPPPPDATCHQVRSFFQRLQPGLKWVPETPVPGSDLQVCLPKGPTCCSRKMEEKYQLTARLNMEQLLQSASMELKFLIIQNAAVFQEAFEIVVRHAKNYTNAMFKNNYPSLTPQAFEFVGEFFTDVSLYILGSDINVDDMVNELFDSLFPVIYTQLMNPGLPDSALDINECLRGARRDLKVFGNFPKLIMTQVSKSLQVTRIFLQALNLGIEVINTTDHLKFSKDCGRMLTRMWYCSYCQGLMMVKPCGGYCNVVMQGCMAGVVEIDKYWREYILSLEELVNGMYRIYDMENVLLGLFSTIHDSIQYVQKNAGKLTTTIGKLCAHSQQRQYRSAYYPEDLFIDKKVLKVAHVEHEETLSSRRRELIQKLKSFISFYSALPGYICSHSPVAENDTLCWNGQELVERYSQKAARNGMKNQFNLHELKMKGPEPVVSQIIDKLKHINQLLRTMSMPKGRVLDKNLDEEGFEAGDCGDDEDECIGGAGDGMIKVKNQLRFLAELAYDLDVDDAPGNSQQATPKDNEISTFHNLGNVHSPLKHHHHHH
# T5 sequence (P08637 17-208 F176V limits assumed): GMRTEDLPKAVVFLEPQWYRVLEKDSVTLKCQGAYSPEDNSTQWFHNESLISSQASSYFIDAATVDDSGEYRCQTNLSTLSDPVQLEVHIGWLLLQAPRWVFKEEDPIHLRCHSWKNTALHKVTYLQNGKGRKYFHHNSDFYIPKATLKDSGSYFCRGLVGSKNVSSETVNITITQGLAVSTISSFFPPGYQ
binder,measurement,setting,value
"GPC3_H2L2 (antibody, human IgG1, kappa, V domains shown) VH: QVQLVQSGAEVKKPGASVKVSCKASGYTFTDYEMHWVRQAPGQGLEWMGALDPKTGDTAYSQKFKGRVTLTADKSTSTAYMELSSLTSEDTAVYYCTRFYSYTYWGQGTLVTVSS VL: DVVMTQSPLSLPVTPGEPASISCRSSQSLVHSNRNTYLHWYLQKPGQSPQLLIYKVSNRFSGVPDRFSGSGSGTDFTLKISRVEAEDVGVYYCSQNTHVPPTFGQGTKLEIKR",IC50 (read off the curve),[1],~0.9 µg/mL
"GPC3_H3L3 (antibody, human IgG1, kappa, V domains shown) VH: QVQLVQSGAEVKKPGASVTVSCKASGYTFTDYEMHWIRQPPGEGLEWIGAIDPKTGDTAYSESFQDRVTLTADKSTSTAYMELSSLTSEDTAVYYCTRFYSYTYWGQGTLVTVSS VL: DIVMTQSPLSLPVTPGEPASISCQASESLVHSNRNTYLHWYLQKPGQSPQLLIYKVSNRFSGVPDRFSGSGSGTDFTLKISRVEAEDVGVYYCSQNTHVPPTFGQGTKVEIER",IC50 (read off the curve),[1],~0.9 µg/mL
"anti-IL-31 receptor antibody H0L0 with IgG1 constant region (antibody, Not the anti-glypican 3 antibody of the same name; also called H0L0 (IgG1)) heavy: not shown VL: DIQMTQSPSSLSASVGDRVTITCRTSENIYSFLAWYQQKPGKAPKLLIYNAKTLAKGVPSRFSGSGSGTDFTLTISSLQPEDFATYYCQHHYESPLTFGGGTKVEIK",Kd,[2],1070 nM
"anti-IL-31 receptor antibody H0L0 with M58 constant region (antibody, also called H0L0 (M58)) heavy: QVQLVQSGAEVKKPGASVKVSCKASGYTFTGYIMNWVRQAPGQGLEWMGLINPYNGGTSYNQKFKGRVTITADESTSTAYMELSSLRSEDTAVYYCARDGYDDGPYTMDYWGQGTLVTVSASTKGPSVFPLAPSSKSTSGGTAALGCLVKDYFPEPVTVSWNSGALTSGVHTFPAVLQSSGLYSLSSVVTVPSSNFGTQTYTCNVDHKPSNTKVDKTVERKSCVECPPCPAPPVAGPSVFLFPPKPKDTLMISRTPEVTCVVVDVSQEDPEVQFNWYVDGVEVHNAKTKPREEQFNSTFRVVSVLTVVHQDWLNGKEYKCKVSNKGLPAPIEKTISKTKGQPREPQVYTLPPSQEEMTKNQVSLTCLVKGFYPSDIAVEWESNGQPENNYKTTPPMLDSDGSFFLYSKLTVDKSRWQEGNVFSCSVMHEALHNHYTQKSLSLSP VL: DIQMTQSPSSLSASVGDRVTITCRTSENIYSFLAWYQQKPGKAPKLLIYNAKTLAKGVPSRFSGSGSGTDFTLTISSLQPEDFATYYCQHHYESPLTFGGGTKVEIK",Kd,[2],910 nM
"6R_a_H1L1 (antibody, human IgG1, kappa, V domains shown, Anti-human IL-6 receptor antibody) VH: QVQLQESGPGLVRPSQTLSLTCTVSGYSITSDHAWSWVRQPPGRGLEWIGYISYSGITTYNPSLKSRVTMLRDTSKNQFSLRLSSVTAADTAVYYCARVLARITAMDYWGQGSLVTVSS VL: DIQMTQSPSSLSASVGDRVTITCRASQDISSYLNWYQQKPGKAPKLLIYYTSRLHSGVPSRFSGSGSGTDFTFTISSLQPEDIATYYCGQGNRLPYTFGQGTKVEIKR",Kd,[3],0.067 nM
"6R_a_H2L2 (antibody, human IgG1, kappa, V domains shown) VH: QVQLQESGPGLVKPSETLSLTCAVSGYSISDDHAWSWVRQPPGEGLEWIGYISYSGITNYNPSLKGRVTISRDTSKNQFSLKLSSVTAADTAAYYCARVLARITAMDYWGEGTLVTVSS VL: DIQMTQSPSSLSASVGDSVTITCQASQDISSYLNWYQQKPGKAPELLIYYGSELHSGVPSRFSGSGSGTDFTFTISSLEAEDAATYYCGQGNRLPYTFGQGTKVEIER",Kd,[3],0.03 nM
"6R_a_H3L3 (antibody, human IgG1, kappa, V domains shown) VH: QVQLQESGPGLVKPSETLSLTCAVSGYSISDDHAWSWVRQPPGEGLEWIGYISYSGITNYNPSLQDRVTISRDNSKNTLYLQMNSLRAEDTAVYYCARLLARATAMDYWGQGILVTVSS VL: DIQMTQSPSSLSASVGDSVTITCQASEDISSYLNWYQQKPGKAPELLIYYGSELESGVPSRFSGSGSGTDFTFTISSLEAEDAATYYCGQGNRLPYTFGQGTKVEIER",Kd,[3],0.052 nM
WT-M14ΔGK (antibody) heavy: QVQLQESGPGLVRPSQTLSLTCTVSGYSITSDHAWSWVRQPPGRGLEWIGYISYSGITTYNPSLKSRVTMLRDTSKNQFSLRLSSVTAADTAVYYCARSLARTTAMDYWGQGSLVTVSSASTKGPSVFPLAPSSKSTSGGTAALGCLVKDYFPEPVTVSWNSGALTSGVHTFPAVLQSSGLYSLSSVVTVPSSNFGTQTYTCNVDHKPSNTKVDKTVERKSCVECPPCPAPPVAGPSVFLFPPKPKDTLMISRTPEVTCVVVDVSHEDPEVQFNWYVDGVEVHNAKTKPREEQFNSTFRVVSVLTVVHQDWLNGKEYKCKVSNKGLPSSIEKTISKAKGQPREPQVYTLPPSREEMTKNQVSLTCLVKGFYPSDIAVEWESNGQPENNYKTTPPVLDSDGSFFLYSKLTVDKSRWQQGNVFSCSVMHEALHNHYTQKSLSLSP light: not shown,Kd,[4],1850 nM
same,binding result,[5],binds
same,binding result,[6],binds
